Measurements reported in paper PMC8553427.

Biological target: T1, AtMYB5trunc (truncated MYB5, MYB DNA-binding domain) (Arabidopsis thaliana (Col)) (UniProt Q38850)
T1 sequence: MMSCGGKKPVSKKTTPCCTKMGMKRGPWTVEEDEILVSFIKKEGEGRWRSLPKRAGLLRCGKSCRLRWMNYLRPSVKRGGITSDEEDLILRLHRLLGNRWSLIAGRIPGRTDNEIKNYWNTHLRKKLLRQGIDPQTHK
Assay: EMSA
Conditions: 20 mM NaCl, 5 mM MgCl2, 20 mM Tris pH 8.0, 10% glycerol, 0.5 mM EDTA, 0.5 mM DTT, poly d(I-C); temperature not stated

CGATGGTCACTTTCCTCATACTCTTTCTATATTGACTGTTAGTTTCTGGTCATTCTCGAAACAAACACTACATTGACTGTTAGATTTCTCATTTCAACCAAAGTAAGTAATAAATTCTGAACC (double strand) [ABE4 promoter probe]
binding: binds more weakly
